Data published in the supplement of paper PMC12042874.
± gives the uncertainty stated by the source.

Assay: amyloid nucleation score (Sup35N fusion, yeast selection) (log enrichment); library NNK2; higher = more nucleation; inactive = no reads after selection
Summary of the method: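 Sup35N fusions to peptides of 20 random codons were expressed in psi-negative yeast, induced 24 hours with 100 μM copper sulfate, and grown 7 days at 30°C on medium lacking adenine and uracil. Input and output plasmid inserts were sequenced by Illumina. The nucleation score is the DiMSum log enrichment of output over input reads, centred on the mode score of non-aggregating sequences. Sequences with under 100 input reads were excluded.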

Substance | amyloid nucleation score
ALKSCVLNDKVRRFLAWRLG | -0.183 ± 0.54
VRCGGVSFGSMWVLDSILVR | 0.652 ± 0.15
SGNHSLVLYDWDYVWYVTQY | -1.1 ± 0.45
FHGHQPYFWNVL | 0.326 ± 0.54
SMTTH | -0.777 ± 0.36
YNLSVFQVITAPHEGDNRAW | 4.55 ± 0.049
LYRLSFSLFWERNRVHSFIR | -0.232 ± 1.1
ASVIQGVRLLFFRNLARSTS | 0.011 ± 0.79
FSIDVSSYRMWLPVSDLYFI | -0.545 ± 0.76
LNVDGAFGKTAWYFRFVIQV | -0.127 ± 1
DLRYTMYYDCFCYVFCPSMT | 8.166 ± 0.059
GECRCYHQTCGFHCNLGFGY | 4.7 ± 0.08
LSFPHVLYFETCPCMARVVA | -0.081 ± 1.1
WYMKILFGKRFSFGGVVSIF | 3.74 ± 0.11
VWLALEWVLGWSTMR | 1.73 ± 0.19
IARDYVQ | -0.918 ± 0.54
SYIWR | -0.551 ± 0.64
TDLYCFSSI | -1.29 ± 1
EYRYCMTHYYFLRCKLFNIF | -1.06 ± 0.63
WHEWCEGCGRNCSWEVGQDR | 0.435 ± 0.23
CSVNNSSLCIVVVAWFCGLD | 0.711 ± 0.45
NYLLMR | 0.414 ± 0.35
FRMSVKR | 0.309 ± 0.33
IPVSMWQDRVTEVLDFGLRK | 0.389 ± 0.8
YKILQFETSFRT | -0.977 ± 0.63
FWVFTNIESMGLAYCDNQDL | 3.09 ± 0.064

Substance | amyloid nucleation score
RNSLEFTDTRCNQPGQCESG | 0.641 ± 0.4
CVLDNGGTYNFRLRRMDHLI | -0.707 ± 0.79
VDEQSLNR | 0.62 ± 0.41
NFYILLATGSFYAVLGCRQY | 2.36 ± 0.12
SIQCMISWQDRDNVEACKVE | 0.346 ± 0.21
NSNGEFIKGACHMVRLFGLQ | 0.098 ± 1
YRFAGYVTPRFGYKSHNISL | -1.22 ± 1.1
RDSFQCSY | -0.939 ± 0.54
HGTCISSGNKWARWTLS | 0.355 ± 0.65
CMREATFRLTSKFLSSFGL | 4.04 ± 0.086
GWTKLFGVHDSGIGCPNGVL | inactive
WQYFFGMYNPSGGRRPGISG | -0.373 ± 1
FNFVMLYPTPAGSAKFVGCI | 2.85 ± 0.19
SRTDVPSTMLLSESRAVNYY | -0.569 ± 1.1
NKVMGAEGCTGLEL | -0.744 ± 0.28
YMRMIYCMFRGNCWVVIVEA | 0.216 ± 0.49
PIKYIVFSVLSCRRCLGNSM | 0.651 ± 0.48
RTYSMGGIR | -0.849 ± 1.1
LQCYPWIYGGSGHPYRFWNL | -0.331 ± 0.8
CHLFVFLGLPRQWVKSRPYA | 0.18 ± 0.22
TLPVPPGCRFVEITV | 0.293 ± 0.53
CLYFFLSYRSCCINVFLGFC | -0.326 ± 1
VICGLTPDRDAHMYLTIFWL | 0.578 ± 0.81
SYDIFWILWLASCMLILYII | 2.92 ± 0.099
NSGSYTSSFNDLVDTLSVLS | inactive
RLYVKWSNSISDSRSLCVP | 0.208 ± 0.16

Substance | amyloid nucleation score
RVWDNSVLGWQQGFSTVERV | 0.766 ± 0.3
RCNWTSNFFQYMYKNRPNNG | inactive
YESHLCVFTCWTFRFLNVMD | -1.01 ± 1.1
FCIPYGGLIDTA | -1.52 ± 0.41
LGLLCTVEIHYLGNMYIHRP | 7.043 ± 0.045
CQIVGRHIGVRMCDDRVYRA | 0.762 ± 0.6
DSDLLVTHMVMLYKHVE | 3.79 ± 0.065
RFSCLSELSFLYFGSH | 5.059 ± 0.034
RRPIGDW | 0.169 ± 0.36
VKAVMWIDLVNRVIMNGHIS | -0.461 ± 0.49
VVAVVPYFN | -0.202 ± 1.1
NWFHVRTDCRRWGGRKVYYN | -0.883 ± 1.1
YCIKLRRYQNDKFWFNYTQV | 4.35 ± 0.086
MPGYYPMGSL | 0.427 ± 0.74
ILWDTIREVHVHADMDMAPN | -0.782 ± 0.61
RHRCSI | -0.059 ± 0.39
CGVPNYQLVVEWMMTNRVGN | -0.888 ± 0.78
KWFSIMRPVRLVRFHWTGSN | 3.63 ± 0.089
YRGSGLMNTSDFVSVLALVN | inactive
LAVHYHILRERTALCLGDHQ | -0.127 ± 1.1
CGYLRDTWWFFCVTLRNRGV | 1.12 ± 0.27
TSVYFHFGFPPWVGVPRRLT | 3.17 ± 0.077
FELLPTR | 3.3 ± 0.079
LCFATYVGTGCVLGLPGYHK | 4.59 ± 0.066
SGGLLKRWYRVDLGVVRYLY | inactive
TLGTFVWVFRSFTCLLLEEQ | 3.29 ± 0.057

Substance | amyloid nucleation score
TVLLGHLEGRVYWEPMIQQV | 0.36 ± 0.64
IYPSVRYPMYAITKRYSRVG | -0.769 ± 0.28
AHHPYTNQGSTVRSRAGQWG | 0.519 ± 0.54
ELVRDASECRYIIVCLNSVA | -0.047 ± 0.65
RPISLCALYWLNLRANIHCR | 0.144 ± 0.56
FYKDKETCLECWMIYENCRK | -0.29 ± 0.32
CMWLLMTHPHKVTIMQ | 7.262 ± 0.061
DYVSRKCFRDKWSERSSCRG | 0.085 ± 0.37
YVLGEHRIRCGEDYV | 1.77 ± 0.31
WSLLEF | inactive
MVLLCIFQ | 8.273 ± 0.064
GVRSNLSYNIFVTCAMRASG | inactive
SIFPRTCSNSACLWISSRKL | 4.259 ± 0.042
VESIKGVSCLYMFSYVMLLQ | -0.021 ± 0.37
SNSFVVFSRVVTRKFVCVLW | -0.691 ± 0.46
FGDVQKPVRMLFVFSFWLLG | -0.392 ± 0.79
PEMWHYMRFSSIKIRLTSKF | -0.016 ± 0.65
HFIGVD | -0.156 ± 0.28
AMTVSWWCCLMYVDMG | 10.59 ± 0.037
VLDFLVSCADYSWSLNNCES | -0.91 ± 0.76
GVPYFLRW | -1.32 ± 0.48
LYDFCVSYVSQNGLRLFVRT | -0.727 ± 0.45
PPRGRTAINMTSKCQARVRP | 0.966 ± 0.3
PCHFVCDCTRMASTTVIHV | 0.01 ± 0.45
CHGRGISYQLLQNRNQQP | 0.08 ± 0.79
RSICVYTIRYLFSH | -0.513 ± 0.3

Substance | amyloid nucleation score
SGESSNCWLMIL | inactive
AFWKVRLYRRPG | 1.76 ± 0.24
CQWSVGRLRSLRAESVVQFD | 0.104 ± 0.35
MVKLFSLSTS | -0.533 ± 0.2
SPSTAMFGPMYSVCIHCEYL | 7.395 ± 0.051
LIIVMTLPYFGTSAM | 0.362 ± 0.3
YKHFSGFLDFQVPAFSGYVS | inactive
AFSFDAW | 2.02 ± 0.14
TDCVKTRPCGRLVKIPLYME | -0.708 ± 1.1
FNTRMSIKSGNMTWSNYYWF | 5.771 ± 0.053
VYIILSFSIGMGEFNMISGG | -0.587 ± 0.79
RLVPISKNRVGMNWSASLSL | 0.012 ± 0.15
WGSISNIFYLLRVLYCLSMS | 1.79 ± 0.26
FYSFGGNGDYSPKSGHWS | inactive
WTCVGSYWSLHFAFSR | 4.25 ± 0.12
ECSHQIL | -0.179 ± 0.63
KLANV | inactive
VINTEVCIEGGRQVRPAPRL | 1 ± 0.41
AHYRR | -0.226 ± 0.45
FSSNTKSNKRIDV | 0.147 ± 0.8
SGDFI | inactive
PRLYTPILYCLLTRCKVYTT | 3.41 ± 0.051
